Source: patent US20160362476

Target: T1, phiC31 integrase (Streptomyces phage phiC31) (UniProt Q9T221)
T1 sequence: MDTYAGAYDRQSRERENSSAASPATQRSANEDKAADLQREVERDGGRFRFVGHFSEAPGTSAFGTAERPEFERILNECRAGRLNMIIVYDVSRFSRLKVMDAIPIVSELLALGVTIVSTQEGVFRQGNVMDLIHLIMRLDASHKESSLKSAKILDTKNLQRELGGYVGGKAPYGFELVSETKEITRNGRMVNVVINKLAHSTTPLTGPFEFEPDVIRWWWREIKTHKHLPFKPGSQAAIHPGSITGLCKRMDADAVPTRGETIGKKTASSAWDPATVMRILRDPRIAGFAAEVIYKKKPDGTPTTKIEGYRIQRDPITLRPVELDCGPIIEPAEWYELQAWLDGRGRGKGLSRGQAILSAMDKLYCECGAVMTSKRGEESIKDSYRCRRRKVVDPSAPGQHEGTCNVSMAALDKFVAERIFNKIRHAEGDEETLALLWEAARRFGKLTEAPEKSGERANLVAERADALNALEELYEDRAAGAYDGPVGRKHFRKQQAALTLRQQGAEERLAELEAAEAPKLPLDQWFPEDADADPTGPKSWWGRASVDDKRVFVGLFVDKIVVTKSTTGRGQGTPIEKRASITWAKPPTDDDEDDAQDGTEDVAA
Test: cell_activity

Substance | activity (recombination partner of attP in E. coli TG1, camR selection) | activity (co-integration of pDonor attP with pAcceptor attB in E. coli TG1, camR/ampR ratio versus already co-integrated plasmid)
GGTGCCAGGGCGTGCCCTTGGGCTCCCCGGGCGCGTACTGAANTATACAAA (double strand) [phiC31 attB (36 bp, in pAcceptor 5' of promoterless camR)] | > 90% | 
phiC31 attP (36 bp, used as scFv linker in pDonor) |  | > 90%
